According to PMC12289918 (Nature Communications, 2025):

Target: T1, K11-HTS-Tail (KLP-11 residues 537-782) (Caenorhabditis elegans, UniProt Q19633 537-782)
T1 sequence (looked up): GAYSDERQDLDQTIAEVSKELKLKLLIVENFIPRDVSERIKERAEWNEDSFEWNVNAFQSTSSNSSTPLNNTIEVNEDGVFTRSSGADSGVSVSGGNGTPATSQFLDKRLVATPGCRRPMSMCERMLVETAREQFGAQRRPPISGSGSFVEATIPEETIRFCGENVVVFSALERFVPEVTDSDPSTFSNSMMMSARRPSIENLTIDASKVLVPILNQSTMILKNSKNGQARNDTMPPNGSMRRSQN
Assay: SEC-MALS

B1: K20-HTS-Tail (KLP-20 residues 527-646) (domain or fragment, Caenorhabditis elegans, UniProt Q965T6 527-646, looked up)
chain: EDHQRQVEAMLDDIRQLRKELLLNIAIIDEYIPVEHVELIEKYVSWSEEHGDWQLKAIAYTGNNMRASAPPAKKEFSNNNQTVPMYYSYRADLGASTAEHRPRTSSKKHRASIRLQQLLT
stoichiometry N: 1
